Measured values: patent US7563583B2, “Heregulin variants” (Genentech, Inc., priority 1997, dated 2009)

Each molecule was assayed on ErbB-3 or ErbB-4 receptors (assay: Alanine scan of the HRG-β1 EGF-like domain by phage ELISA (FIG. 2)). Conditions: ratio of variant EC50 to wild-type EC50.
Assay type: binding
Experimental: The X axis lists each amino acid that was changed to alanine and its position. […] The EC50 was calculated as the concentration of soluble receptor fusion required to displace 50% of the total amount of phage bound to immobilized receptor fusion. ErbB-3 binding results are shown with black bars, and ErbB-4 binding results are shown with white bars.
Alanine-substituted variants were generated by site-directed mutagenesis according to Kunkel et al., Methods Enzymol. 154:367-82 (1987) (hereinafter “Kunkel mutagenesis”), using uracil-containing single-stranded DNA template prepared from pHRG2-g3. pHRG2-g3, which is described in Example 1, expressed HRG-β1 177-244 fused to pIII 247. A series of oligonucleotides was used to generate a series of constructs that expressed a series of variants in which consecutive residues were mutated to alanine. Phage stocks were prepared from these constructs as described in Example 1, except that PEG(8000) was used to precipitate the phage. The affinities of the alanine-substituted variants for ErbB-3-Ig and ErbB-4-Ig was determined by phage ELISA as described in Example 1.

Row | Molecule | effect of substitution with alanine on affinity for the ErbB-3 or ErbB-4 receptors
1 | V191: HRG-β1 variant with V191 mutated to alanine (protein, UniProt Q02297 1-640, looked up, variant V191A) MSERKEGRGKGKGKKKERGSGKKPESAAGSQSPALPPRLKEMKSQESAAGSKLVLRCETSSEYSSLRFKWFKNGNELNRKNKPQNIKIQKKPGKSELRINKASLADSGEYMCKVISKLGNDSASANITIVESNEIITGMPASTEGAYVSSESPIRISVSTEGANTSSSTSTSTTGTSHLVKCAEKEKTFCANGGECFMVKDLSNPSRYLCKCQPGFTGARCTENVPMKVQNQEKAEELYQKRVLTITGICIALLVVGIMCVVAYCKTKKQRKKLHDRLRQSLRSERNNMMNIANGPHHPNPPPENVQLVNQYVSKNVISSEHIVEREAETSFSTSHYTSTAHHSTTVTQTPSHSWSNGHTESILSESHSVIVMSSVENSRHSSPTGGPRGRLNGTGGPRECNSFLRHARETPDSYRDSPHSERYVSAMTTPARMSPVDFHTPSSPKSPPSEMSPPVSSMTVSMPSMAVSPFMEEERPLLLVTPPRLREKKFDHHPQQFSSFHHNPAHDSNSLPASPLRIVEDEEYETTQEYEPAQEPVKKLANSRRAKRTKPNGHIANRLEVDSNTSSQSSNSESETEDERVGEDTPFLGIQNPLAASLEATPAFRLADSRTNPAGRFSTQEEIQARLSSVIANQDPIAV | two and five
2 | E184: HRG-β1 variant with E184 mutated to alanine (protein, UniProt Q02297 1-640, looked up, variant E184A) MSERKEGRGKGKGKKKERGSGKKPESAAGSQSPALPPRLKEMKSQESAAGSKLVLRCETSSEYSSLRFKWFKNGNELNRKNKPQNIKIQKKPGKSELRINKASLADSGEYMCKVISKLGNDSASANITIVESNEIITGMPASTEGAYVSSESPIRISVSTEGANTSSSTSTSTTGTSHLVKCAAKEKTFCVNGGECFMVKDLSNPSRYLCKCQPGFTGARCTENVPMKVQNQEKAEELYQKRVLTITGICIALLVVGIMCVVAYCKTKKQRKKLHDRLRQSLRSERNNMMNIANGPHHPNPPPENVQLVNQYVSKNVISSEHIVEREAETSFSTSHYTSTAHHSTTVTQTPSHSWSNGHTESILSESHSVIVMSSVENSRHSSPTGGPRGRLNGTGGPRECNSFLRHARETPDSYRDSPHSERYVSAMTTPARMSPVDFHTPSSPKSPPSEMSPPVSSMTVSMPSMAVSPFMEEERPLLLVTPPRLREKKFDHHPQQFSSFHHNPAHDSNSLPASPLRIVEDEEYETTQEYEPAQEPVKKLANSRRAKRTKPNGHIANRLEVDSNTSSQSSNSESETEDERVGEDTPFLGIQNPLAASLEATPAFRLADSRTNPAGRFSTQEEIQARLSSVIANQDPIAV | two
3 | T188: HRG-β1 variant with T188 mutated to alanine (protein, UniProt Q02297 1-640, looked up, variant T188A) MSERKEGRGKGKGKKKERGSGKKPESAAGSQSPALPPRLKEMKSQESAAGSKLVLRCETSSEYSSLRFKWFKNGNELNRKNKPQNIKIQKKPGKSELRINKASLADSGEYMCKVISKLGNDSASANITIVESNEIITGMPASTEGAYVSSESPIRISVSTEGANTSSSTSTSTTGTSHLVKCAEKEKAFCVNGGECFMVKDLSNPSRYLCKCQPGFTGARCTENVPMKVQNQEKAEELYQKRVLTITGICIALLVVGIMCVVAYCKTKKQRKKLHDRLRQSLRSERNNMMNIANGPHHPNPPPENVQLVNQYVSKNVISSEHIVEREAETSFSTSHYTSTAHHSTTVTQTPSHSWSNGHTESILSESHSVIVMSSVENSRHSSPTGGPRGRLNGTGGPRECNSFLRHARETPDSYRDSPHSERYVSAMTTPARMSPVDFHTPSSPKSPPSEMSPPVSSMTVSMPSMAVSPFMEEERPLLLVTPPRLREKKFDHHPQQFSSFHHNPAHDSNSLPASPLRIVEDEEYETTQEYEPAQEPVKKLANSRRAKRTKPNGHIANRLEVDSNTSSQSSNSESETEDERVGEDTPFLGIQNPLAASLEATPAFRLADSRTNPAGRFSTQEEIQARLSSVIANQDPIAV | two and five
4 | V199: HRG-β1 variant with V199 mutated to alanine (protein, left off: large carriers; small tags and cut ends, HRG-β1 variant with V199 mutated to alanine) SHLVKCAEKEKTFCVNGGECFMAKDLSNPSRYLCKCPNEFTGDRCQNYVMASFYKHLGIEFMEAEELY | two
5 | S177: HRG-β1 variant with S177 mutated to alanine (protein, left off: large carriers, HRG-β1 variant with S177 mutated to alanine) AHLVKCAEKEKTFCVNGGECFMVKDLSNPSRYLCKCPNEFTGDRCQNYVMASFYKHLGIEFMEAEELY | two and five

The remaining lines, values ahead:

Row | effect of substitution with alanine on affinity for the ErbB-3 or ErbB-4 receptors | Molecule
6 | two | D201: HRG-β1 variant with D201 mutated to alanine (protein, UniProt Q02297 1-640, looked up, variant D201A) MSERKEGRGKGKGKKKERGSGKKPESAAGSQSPALPPRLKEMKSQESAAGSKLVLRCETSSEYSSLRFKWFKNGNELNRKNKPQNIKIQKKPGKSELRINKASLADSGEYMCKVISKLGNDSASANITIVESNEIITGMPASTEGAYVSSESPIRISVSTEGANTSSSTSTSTTGTSHLVKCAEKEKTFCVNGGECFMVKALSNPSRYLCKCQPGFTGARCTENVPMKVQNQEKAEELYQKRVLTITGICIALLVVGIMCVVAYCKTKKQRKKLHDRLRQSLRSERNNMMNIANGPHHPNPPPENVQLVNQYVSKNVISSEHIVEREAETSFSTSHYTSTAHHSTTVTQTPSHSWSNGHTESILSESHSVIVMSSVENSRHSSPTGGPRGRLNGTGGPRECNSFLRHARETPDSYRDSPHSERYVSAMTTPARMSPVDFHTPSSPKSPPSEMSPPVSSMTVSMPSMAVSPFMEEERPLLLVTPPRLREKKFDHHPQQFSSFHHNPAHDSNSLPASPLRIVEDEEYETTQEYEPAQEPVKKLANSRRAKRTKPNGHIANRLEVDSNTSSQSSNSESETEDERVGEDTPFLGIQNPLAASLEATPAFRLADSRTNPAGRFSTQEEIQARLSSVIANQDPIAV
7 | two and five | L209: HRG-β1 variant with L209 mutated to alanine (protein, UniProt Q02297 1-640, looked up, variant L209A) MSERKEGRGKGKGKKKERGSGKKPESAAGSQSPALPPRLKEMKSQESAAGSKLVLRCETSSEYSSLRFKWFKNGNELNRKNKPQNIKIQKKPGKSELRINKASLADSGEYMCKVISKLGNDSASANITIVESNEIITGMPASTEGAYVSSESPIRISVSTEGANTSSSTSTSTTGTSHLVKCAEKEKTFCVNGGECFMVKDLSNPSRYACKCQPGFTGARCTENVPMKVQNQEKAEELYQKRVLTITGICIALLVVGIMCVVAYCKTKKQRKKLHDRLRQSLRSERNNMMNIANGPHHPNPPPENVQLVNQYVSKNVISSEHIVEREAETSFSTSHYTSTAHHSTTVTQTPSHSWSNGHTESILSESHSVIVMSSVENSRHSSPTGGPRGRLNGTGGPRECNSFLRHARETPDSYRDSPHSERYVSAMTTPARMSPVDFHTPSSPKSPPSEMSPPVSSMTVSMPSMAVSPFMEEERPLLLVTPPRLREKKFDHHPQQFSSFHHNPAHDSNSLPASPLRIVEDEEYETTQEYEPAQEPVKKLANSRRAKRTKPNGHIANRLEVDSNTSSQSSNSESETEDERVGEDTPFLGIQNPLAASLEATPAFRLADSRTNPAGRFSTQEEIQARLSSVIANQDPIAV
8 | two | N204: HRG-β1 variant with N204 mutated to alanine (protein, UniProt Q02297 1-640, looked up, variant N204A) MSERKEGRGKGKGKKKERGSGKKPESAAGSQSPALPPRLKEMKSQESAAGSKLVLRCETSSEYSSLRFKWFKNGNELNRKNKPQNIKIQKKPGKSELRINKASLADSGEYMCKVISKLGNDSASANITIVESNEIITGMPASTEGAYVSSESPIRISVSTEGANTSSSTSTSTTGTSHLVKCAEKEKTFCVNGGECFMVKDLSAPSRYLCKCQPGFTGARCTENVPMKVQNQEKAEELYQKRVLTITGICIALLVVGIMCVVAYCKTKKQRKKLHDRLRQSLRSERNNMMNIANGPHHPNPPPENVQLVNQYVSKNVISSEHIVEREAETSFSTSHYTSTAHHSTTVTQTPSHSWSNGHTESILSESHSVIVMSSVENSRHSSPTGGPRGRLNGTGGPRECNSFLRHARETPDSYRDSPHSERYVSAMTTPARMSPVDFHTPSSPKSPPSEMSPPVSSMTVSMPSMAVSPFMEEERPLLLVTPPRLREKKFDHHPQQFSSFHHNPAHDSNSLPASPLRIVEDEEYETTQEYEPAQEPVKKLANSRRAKRTKPNGHIANRLEVDSNTSSQSSNSESETEDERVGEDTPFLGIQNPLAASLEATPAFRLADSRTNPAGRFSTQEEIQARLSSVIANQDPIAV
9 | two and five | F229: HRG-β1 variant with F229 mutated to alanine (protein, left off: large carriers; small tags and cut ends, HRG-β1 variant with F229 mutated to alanine) SHLVKCAEKEKTFCVNGGECFMVKDLSNPSRYLCKCPNEFTGDRCQNYVMASAYKHLGIEFMEAEELY
10 | two | E215: HRG-β1 variant with E215 mutated to alanine (protein, left off: large carriers; small tags and cut ends, HRG-β1 variant with E215 mutated to alanine) SHLVKCAEKEKTFCVNGGECFMVKDLSNPSRYLCKCPNAFTGDRCQNYVMASFYKHLGIEFMEAEELY
11 | two | P205: HRG-β1 variant with P205 mutated to alanine (protein, left off: large carriers; small tags and cut ends, HRG-β1 variant with P205 mutated to alanine) SHLVKCAEKEKTFCVNGGECFMVKDLSNASRYLCKCPNEFTGDRCQNYVMASFYKHLGIEFMEAEELY
12 | two | K200: HRG-β1 variant with K200 mutated to alanine (protein, left off: large carriers; small tags and cut ends, HRG-β1 variant with K200 mutated to alanine) SHLVKCAEKEKTFCVNGGECFMVADLSNPSRYLCKCPNEFTGDRCQNYVMASFYKHLGIEFMEAEELY
